Laboratory results reported in US20110059095A1 (Regeneron, published 2011).
Where a chain is given by its changes, count along the chain named. Where no end group is shown, it is not given here. The star is where a group is joined. Biotin = O=C1N[C@H]2[C@H](CS[C@H]2CCCCC(=O)*)N1

T1: Peptide E (mouse PAR-2), N-terminal biotinylated (Mouse (Mus musculus), N-terminal biotin via G4S linker)
T1 construct: also called Peptide E N-Term
T1 peptide: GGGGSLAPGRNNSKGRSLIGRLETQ

T2: Peptide G (rat PAR-2), N-terminal biotinylated (Rat (Rattus norvegicus), N-terminal biotin via G4S linker)
T2 construct: also called Peptide G N-Term
T2 peptide: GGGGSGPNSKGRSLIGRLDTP

T3: Peptide A (human PAR-2), unbiotinylated (Human)
T3 construct: also called Peptide A No Biotin
T3 peptide: GTNRSSKGRSLIGKVDGT

T4: Peptide A (human PAR-2), N-terminal biotinylated (Human, N-terminal biotin via G4S linker)
T4 construct: also called Peptide A N-Term
T4 peptide: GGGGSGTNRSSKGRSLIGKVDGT

T5: Peptide G (rat PAR-2), unbiotinylated (Rat (Rattus norvegicus))
T5 construct: also called Peptide G No Biotin
T5 peptide: GPNSKGRSLIGRLDTP

T6: Peptide E (mouse PAR-2), unbiotinylated (Mouse (Mus musculus))
T6 construct: also called Peptide E No Biotin
T6 peptide: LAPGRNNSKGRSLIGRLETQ

T7: Peptide G (rat PAR-2), C-terminal biotinylated (Rat (Rattus norvegicus), C-terminal biotin via G4S linker)
T7 construct: also called Peptide G C-Term
T7 peptide: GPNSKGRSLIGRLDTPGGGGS

T8: Peptide D (N-terminal domain of human PAR-2-mouse IgG2a) (Human)
T8 chain: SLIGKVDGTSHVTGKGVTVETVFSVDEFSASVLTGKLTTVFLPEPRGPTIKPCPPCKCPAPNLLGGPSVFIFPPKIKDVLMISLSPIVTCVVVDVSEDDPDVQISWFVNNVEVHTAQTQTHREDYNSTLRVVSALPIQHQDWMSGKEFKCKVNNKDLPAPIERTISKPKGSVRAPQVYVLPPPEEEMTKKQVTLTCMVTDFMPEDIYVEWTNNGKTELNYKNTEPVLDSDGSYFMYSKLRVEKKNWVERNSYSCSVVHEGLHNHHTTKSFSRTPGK

T9: Peptide C (human PAR-2), N-terminal biotinylated (Human)
T9 construct: also called Peptide C N-Term
T9 peptide: Biotin-GGGGSSLIGKV

T10: Peptide C (human PAR-2), C-terminal biotinylated (Human)
T10 construct: also called Peptide C C-Term
T10 peptide: SLIGKVGGGGS-biotin

T11: Peptide B (human PAR-2), unbiotinylated (Human)
T11 construct: also called Peptide B No Biotin
T11 peptide: SLIGKVDGTSHVTG

B1: H4H580P (antibody, human IgG4, V domains shown)
VH: QVQLVESGGGVVQPGRSLRLSCVASGFTFSRYGMHWVRQAPGKGLEWVVVISYDGINKYYADSVKGRFTISRDNSKNTVYLQMNSLRAEDTAVYHCAKGDFWSGYFDYWGQGTLVTVSS
VL: DIVMTQTPLSSPVTLGQPASISCRSSQSLVHSDGNTYLSWLHQRPGQPPRLLIYKISNRFSGVPDRFSGSGAGTDFTLQISRVEAEDVGIYYCMQATQFPTFGGGTKVEIK
notes: also called H1H580P variable regions
B2: H4H591N (antibody, human IgG4, V domains shown)
VH: EVQLLESGGGLVQPGGSLRLSCATSGFTFSRYTMTWVRQAPGKGLFWVSGIGGSGGRAYYADSVKGRFTLSRDNSKNTLYLQMNSLRAEDTAVYYCAKEGDSGYDLDYWGRGTLVTVSS
VL: DIQMTQYPSSLSASVGDRVTITCRARQGISNYLAWLQQKPGKAPKSLIYAASSLQRGVPSKFSGSGSGTDFTLTISSLQPEDSATYYCQQYKISPLTFGGGTKVEIK
notes: also called H2M591N variable regions
B3: H4H618N (antibody, human IgG4, V domains shown)
VH: EVQLLESGGGLVQPGGSLRLSCAASGFTFRSYTMTWVRQAPGKGLDWVSGITDSGAGTYYGDSVKGRFTISRDNSKNTLYLQMNSLRAEDTAVYYCVKEGDSGYDLDYWGQGTLVTVSS
VL: B2 VL with Y7S, R26S, N31T, A51T, R56S, G66R, S83F, I93S
notes: also called H2M618N variable regions
B4: H2M610N (antibody, V domains shown)
VH: EVQLVESGGNLVQPGRSLRLSCAASGFTFDDYAMHWVRQAPGKGLEWVSGISWNSGSRGYADSVKGRFTISRDNAKNSLYLQMNSLRTEDTAFYYCTKEDEAFDYWGQGTLVTVSS
VL: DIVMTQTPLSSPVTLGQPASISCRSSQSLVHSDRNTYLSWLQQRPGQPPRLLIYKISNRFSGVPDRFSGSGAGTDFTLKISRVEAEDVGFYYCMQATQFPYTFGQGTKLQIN
notes: chimeric: human variable, mouse constant domains
B5: H4H573P (antibody, human IgG4, V domains shown)
VH: EVQLVESGGGLVQPGRSLRLSCAASGFTFDDYAMHWVRQGPGKGLEWVSGISWNGGSAGYADSVKGRFTISRDNAKNSLYLQLNSLRAEDTALYYCAKEDYAFDIWGQGTMVTVSS
VL: not shown
notes: also called H1H573P variable regions
B6: H4H578P (antibody, human IgG4, V domains shown)
VH: QVQLVESGGGVVQPGMSLRLSCAASGFTFRRYGMHWVRQAPGKGLEWVAVIWYDGSNKYYVDSVKGRFTISRDNSKNTLYLQMNSLRAEDTAVYYCASEITVGDWFDPWGQGTLVTVSS
VL: AIQMTQSPSSLSASVGDRVTITCRASQGIRNDLGWYQQKPGKAPKLLIYAASSLHSGVPSRFSGSGSGTDFTLTISSLQPEDFATYYCLQDFNYPLTFGGGTKVEIK
notes: also called H1H578P variable regions

Legend:
full length human PAR-2 [1] = biological target: T12, full length human PAR-2 (human, UniProt P55085 26-397); assay: MSD cell binding
T12 construct: overexpressed on HEK293-derived 293/D9 cells; also called 293/D9/hPAR-2rec cells
Protocol: HEK293 cells were transfected with an NF-κB-luciferase-IRES-eGFP reporter plasmid. […] A clonal cell line, named D9, having low background levels of luciferase activity and high levels of eGFP when induced with IL-1β was made by a series of successive sorts of cell populations using flow cytometry. The 293/D9 cell line was then separately transfected with human PAR-2 or mouse PAR-2 to create the stable cell lines 293/D9/h PAR-2rec and 293/D9/m PAR-2rec, respectively.
Cells were plated on MSD high-bind 96 well plates at a density of 4×10⁴ cells/well in PBS and incubated for one hour at room temperature. Cells were then blocked in PBS with 2% BSA and incubated at room temperature for one hour. Anti-PAR-2 antibodies (ranging from 100 nM to 0.098 nM) were serially diluted two-fold in PBS with 0.5% BSA and incubated with the cells for one hour at room temperature followed by washing in PBS with 0.5% BSA. Sulfo-tagged anti-human IgG antibody (MSD) at a concentration of 0.1 μg/ml was then added to the cell/antibody mixture and incubated at room temperature for an additional hour. After another wash, a 1× non-surfactant containing read buffer was added and electro-chemiluminescent signal was read on the MSD Sector Imager. Signal of antibody binding to 293/D9 cells was subtracted from signal to 293/D9/hPAR-2rec or 293/D9/mPAR-2rec cells. Subtracted data were analyzed using a sigmoidal dose-response model in GraphPad Prism and EC₅₀ and Bₘₐₓ values were reported (Table 18). EC₅₀ values are defined as the antibody concentration required to achieve 50% maximal binding (Bₘₐₓ) to cells.

full length human PAR-2 [2] = biological target: T12, full length human PAR-2; assay: cell-based or functional assay
[3] = biological target: T1, Peptide E (mouse PAR-2), N-terminal …; assay: peptide ELISA titration
Protocol: (§1) Anti-PAR-2 antibodies were tested for their ability to bind to the PAR-2 peptides. Various PAR-2 Peptides (Table 3) were coated onto 96-well plates at a concentration of 2 μg/ml and incubated overnight followed by blocking in a suitable blocking agent for one hour. […] Purified anti-PAR-2 antibodies were added to the plate coated with PAR-2 peptides to a final concentration ranging from 0.2 to 2.0 μg/ml and incubated for one hour at room temperature. Detection of bound antibodies was determined with Horse-Radish Peroxidase (HRP) conjugated anti-mouse or human IgG (Jackson Immuno Research Lab, West Grove, Pa.) and developed by standard colorimetric response using tetramethylbenzidine (TMB) substrate. Absorbance was read at OD₄₅₀ for 0.1 second.
(§2) In another experiment, selected anti-PAR-2 antibodies cloned onto human IgG4 were tested for binding to unbiotinylated and biotinylated forms of PAR-2 peptides (Peptides A, E, F and G; as described above). […] Absorbance values at 450 nm were analyzed using a sigmoidal dose-response model in GraphPad Prism (GraphPad Software, Inc., La Jolla, Calif.) and EC₅₀ values were reported (Table 9). EC₅₀ values are defined as the antibody concentration required to achieve 50% maximal binding to PAR-2 peptide.

[4] = biological target: T13, Peptide A (human PAR-2), C-terminal biotinylated (Human, C-terminal biotin via G4S linker); assay: peptide ELISA titration
T13 construct: also called Peptide A C-Term
Protocol: as §1, §2

[5] = biological target: T2, Peptide G (rat PAR-2), N-terminal …; assay: peptide ELISA titration
Protocol: as §1, §2

[6] = biological target: T14, Peptide F (monkey PAR-2), N-terminal biotinylated (Monkey (Macaca mulatta), N-terminal biotin via G4S linker); assay: peptide ELISA titration
T14 construct: also called Peptide F N-Term
Protocol: as §1, §2

[7] = biological target: T3, Peptide A (human PAR-2), unbiotinylated; assay: peptide ELISA titration
Protocol: as §1, §2

[8] = biological target: T4, Peptide A (human PAR-2), N-terminal …; assay: peptide ELISA titration
Protocol: as §1, §2

[9] = biological target: T5, Peptide G (rat PAR-2), unbiotinylated; assay: peptide ELISA titration
Protocol: as §1, §2

[10] = biological target: T6, Peptide E (mouse PAR-2), unbiotinylated; assay: peptide ELISA titration
Protocol: as §1, §2

[11] = biological target: T7, Peptide G (rat PAR-2), C-terminal …; assay: peptide ELISA titration
Protocol: as §1, §2

[12] = biological target: T3, Peptide A (human PAR-2), unbiotinylated; assay: SPR, antibody captured
Protocol: (§3) Equilibrium dissociation constants (KD values) for antigen binding to selected purified PAR-2 antibodies were determined by surface kinetics using a real-time surface plasmon resonance biosensor assay. Antibody was captured on either a rabbit anti-mouse IgG polyclonal antibody (GE Healthcare, Piscataway, N.J.) surface or a goat anti-human IgG polyclonal antibody (Jackson Immuno Research Lab, West Grove, Pa.) surface created through direct amine chemical coupling to a BIACORE™ CM5 sensor chip to form a captured antibody surface. […] Antigen-antibody binding and dissociation were monitored in real time at room temperature. Kinetic analysis was performed to calculate KD and half-life of antigen/antibody complex dissociation (Table 10). For those antibodies where no T_{1/2} value is shown, steady state analysis was used to calculate the KD value. NB: no binding observed under current experimental conditions. ND: not determined.

[13] = biological target: T8, Peptide D (N-terminal domain of human …); assay: peptide ELISA
full length human PAR-2 [14] = biological target: T12, full length human PAR-2; assay: cell-based or functional assay; remark: listed apart in the source
[15] = biological target: T14, Peptide F (monkey PAR-2), N-terminal …; assay: SPR, antibody captured
Protocol: as §3

[16] = biological target: T13, Peptide A (human PAR-2), C-terminal …; assay: peptide ELISA
Protocol: as §1

[17] = biological target: T9, Peptide C (human PAR-2), N-terminal …; assay: peptide ELISA
Protocol: as §1

[18] = biological target: T10, Peptide C (human PAR-2), C-terminal …; assay: peptide ELISA
Protocol: as §1

[19] = biological target: T3, Peptide A (human PAR-2), unbiotinylated; assay: peptide ELISA
Protocol: as §1

[20] = biological target: T4, Peptide A (human PAR-2), N-terminal …; assay: peptide ELISA
Protocol: as §1

[21] = biological target: T11, Peptide B (human PAR-2), unbiotinylated; assay: SPR, antibody captured; SPR at room temperature, monomeric peptide 15.6-250 nM injected over captured antibody
Protocol: as §3

[22] = biological target: T3, Peptide A (human PAR-2), unbiotinylated; assay: SPR, antibody captured, steady state
Protocol: as §3

T12 sequence (P55085 26-397 G138A limits assumed): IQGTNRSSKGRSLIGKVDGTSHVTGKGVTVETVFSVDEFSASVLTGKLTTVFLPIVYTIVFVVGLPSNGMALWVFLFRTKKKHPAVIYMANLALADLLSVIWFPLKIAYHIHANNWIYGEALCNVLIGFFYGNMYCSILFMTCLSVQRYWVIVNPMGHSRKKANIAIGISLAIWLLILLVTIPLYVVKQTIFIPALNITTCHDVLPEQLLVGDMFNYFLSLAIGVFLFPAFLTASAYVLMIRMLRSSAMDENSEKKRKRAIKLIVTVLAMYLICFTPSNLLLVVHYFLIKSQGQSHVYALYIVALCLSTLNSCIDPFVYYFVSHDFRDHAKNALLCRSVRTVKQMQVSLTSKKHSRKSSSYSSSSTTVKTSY
T14 sequence (peptide, as listed by the source): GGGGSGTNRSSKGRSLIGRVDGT

| Binder | IC50, NF-kB-luciferase, 20 nM Trypsin (full length human PAR-2 [2]) [nM] | EC50 [3] [nM] | EC50 [4] [nM] | EC50 [5] [nM] | EC50 [6] [nM] | EC50 [7] [nM] | EC50 [8] [nM] | EC50 [9] [nM] | EC50 [10] [nM] | EC50 [11] [nM] | Kd [12] [nM] | T1/2 [12] [s] | binding result [13] | IC50, NF-kB-luciferase, 10 nM Human Trypsin 1 (full length human PAR-2 [14]) [nM] | IC50, NF-kB-luciferase, 200 nM Factor Xa (full length human PAR-2 [14]) [nM] | IC50, NF-kB-luciferase, 750 nM Lung Tryptase (full length human PAR-2 [14]) [nM] | Kd [15] [nM] | T1/2 [15] [s] | Kd [22] [nM] | further results |
| --- | --- | --- | --- | --- | --- | --- | --- | --- | --- | --- | --- | --- | --- | --- | --- | --- | --- | --- | --- | --- |
| B1 | 3.5 | 0.932 | 0.202 | 0.142 | 0.148 | 0.09 | 0.16 | 0.139 | 2.53 | 0.1 | 103 | 52.8 | – | – | – | – | – | – | – | Bmax (full length human PAR-2 [1]): 30200 MSD Unit; EC50 (full length human PAR-2 [1]): 8.69 nM |
| B2 | 204 | – | 0.016 | – | 0.011 | 0.01 | 0.022 | – | – | – | – | – | binds | 105 | 74.6 | 62.9 | 8.54 | 1260 | – | – |
| B3 | 50.2 | – | 0.016 | – | 0.011 | 0.009 | 0.021 | – | – | – | – | – | binds | 92.2 | 47.2 | 8.5 | 13.8 | 300 | – | – |
| B4 | – | – | – | – | – | – | – | – | – | – | – | – | – | – | – | – | – | – | 71.3 | OD450 [16]: 1 to 4 od; OD450 [17]: 0 to 0.09 od; OD450 [18]: 0 to 0.09 od; OD450 [19]: 1 to 4 od; OD450 [20]: 1 to 4 od; Kd [21]: 360 nM; T1/2 [21]: 48 s |
| B5 | – | 0.016 | 0.022 | 0.017 | 0.018 | 0.093 | 0.093 | 0.014 | 0.355 | 10.1 | – | – | – | – | – | – | – | – | 749 | – |
| B6 | – | 0.09 | 0.04 | 0.081 | 0.036 | 0.034 | 0.062 | 0.046 | 2.78 | – | 245 | 10.2 | – | – | – | – | – | – | – | – |
